1 molecule from paper PMC4666614, “Identification of New Regions in HIV-1 gp120 Variable 2 and 3 Loops that Bind to α4β7 Integrin Receptor” (PLoS ONE, 2015) can be followed below.

The assay relates to α4β7 integrin binding to MAdCAM-1. Nature of the assay: Competitive inhibition of binding of α4β7 on RPMI8866 cells to MAdCAM-1 by peptides, viruses, IMCs and controls. Type of assay: cell-based, human. As to conditions: for % Inhibition ± SD of α4β7 integrin binding to MAdCAM-1: average of 3–7 experiments in triplicate. The method, then:
96-well plates were coated with MAdCAM-1 as described above. RPMI8866 cells (2 X 10^6/ ml) were incubated with cyclic V2 or V3 MN, TH023, or acute subtype C (C-6980v0c22) peptides or with scrambled flanking region (SFL) or the mid region (SMR) TH023 V2 or with a completely scrambled (SCR) TH023 peptide (10 μg/ml) for 45 minutes at 37°C before being added in triplicate to the MAdCAM-1 coated plates for 1 hour at 37°C. In concurrent experiments, RMI8866 cells were incubated with purified primary HIV-1 (0.75 ng to 6 ng/well p24) subtype B (SF162, US-1, JRFL), subtype CRF01_AE viruses (92TH023), IMCs (0.75 ng to 1000 ng/well p24 in each case) containing acute or chronic envelopes (Acute CRF01_AE (703357) [GenBank:JN944658], C (C-6980v0c22) [GenBank:HM215344], A(851891); Chronic CRF01_AE (CM235.2) [AF259954.1], C (ET02220LucR) [U46016]) or with pSG3Δenv. pSG3Δenv contained a four-nucleotide insertion mutation (CTAG) in Env, leading to a translation stop codon after amino acid residue 142. The pSG3Δenv clone is routinely used for generating Env pseudotyped infectious virions.
Viruses were tested in triplicate in two independent experiments. In additional experiments, mannose, HIV-1 p24, and ovalbumin (0.2–10 μg/ml) were used in the competition assay as nonspecific protein controls (data in Table 2; 3–7 experiments performed in triplicate), whereas, an anti-RSV mAb, Synagis® was used as a nonspecific antibody control. Synagis® was incubated for 45 minutes with either MAdCAM-1 or with RPMI8866 cells and then placed in the assay system. The remainder of the assay was similar to that described above. Significance was determined by paired Student’s t test.

B1: Ovalbumin: nonspecific protein control (protein)
chain: MGSIGAASMEFCFDVFKELKVHHANENIFYCPIAIMSALAMVYLGAKDSTRTQINKVVRFDKLPGFGDSIEAQCGTSVNVHSSLRDILNQITKPNDVYSFSLASRLYAEERYPILPEYLQCVKELYRGGLEPINFQTAADQARELINSWVESQTNGIIRNVLQPSSVDSQTAMVLVNAIVFKGLWEKAFKDEDTQAMPFRVTEQESKPVQMMYQIGLFRVASMASEKMKILELPFASGTMSMLVLLPDEVSGLEQLESIINFEKLTEWTSSNVMEERKIKVYLPRMKMEEKYNLTSVLMAMGITDVFSSSANLSGISSAESLKISQAVHAAHAEINEAGREVVGSAEAGVDAASVSEEFRADHPFLFCIKHIATNAVLFFGRCVSP
As to B1, the “% Inhibition ± SD of α4β7 integrin binding to MAdCAM-1” value reads like this: (0.2 μg/ml) 7.2 ± 12.5%; (1.0 μg/ml) 2.0 ± 3.5%; (5 μg/ml) 13.6 ± 11.8%. Under “10 μg/ml, average of triplicate determinations from a single experiment”, the “% Inhibition of α4β7 integrin binding to MAdCAM-1” value amounted to 18%. Also, the “Inhibition of α4β7 integrin binding to MAdCAM-1 by nonspecific controls (in words)” value (0.2–10 μg/ml) is recorded as “no significant inhibition”.
